Five molecules from publication PMC6957272, “Activation of a nucleotide-dependent RCK domain requires binding of a cation cofactor to a conserved site” (eLife, 2019) can be followed below.

The stoichiometry N is a count of units in the complex or per binding partner.

T1: KtrB (B. subtilis, UniProt O32081 1-445)
T1 construct: KtrB, membrane protein of the B. subtilis KtrAB cation channel; The Strep tag held KtrB on Strep-Tactin beads while KtrA was added to assemble the complex; it was cleaved by thrombin before the size-exclusion step; also called wild-type KtrB; source: E. coli BL21(DE3), extracted with DDM, purified (Strep-Tactin Sepharose, size exclusion); not shown: Strep, N-terminal, cleaved
T1 sequence (looked up): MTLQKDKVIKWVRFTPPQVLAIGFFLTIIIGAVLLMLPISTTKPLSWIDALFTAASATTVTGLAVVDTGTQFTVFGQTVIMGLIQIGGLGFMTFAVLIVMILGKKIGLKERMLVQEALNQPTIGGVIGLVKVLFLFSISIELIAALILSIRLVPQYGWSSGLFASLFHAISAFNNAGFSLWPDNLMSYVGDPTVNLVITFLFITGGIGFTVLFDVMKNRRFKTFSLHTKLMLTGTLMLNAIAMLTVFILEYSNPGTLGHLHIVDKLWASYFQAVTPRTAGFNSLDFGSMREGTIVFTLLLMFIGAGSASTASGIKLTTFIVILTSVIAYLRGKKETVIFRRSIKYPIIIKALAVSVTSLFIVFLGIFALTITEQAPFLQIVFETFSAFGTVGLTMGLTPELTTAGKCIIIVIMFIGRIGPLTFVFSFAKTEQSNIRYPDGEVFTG

B1: wild-type KtrA (natural protein, B. subtilis)
chain: MGRIKNKQFAVIGLGRFGGSICKELHRMGHEVLAVDINEEKVNAYASYATHAVIANATEENELLSLGIRNFEYVIVAIGANIQASTLTTLLLKELDIPNIWVKAQNYYHHKVLEKIGADRIIHPEKDMGVKIAQSLSDENVLNYIDLSDEYSIVELLATRKLDSKSIIDLNVRAKYGCTILAIKHHGDICLSPAPEDIIREQDCLVIMGHKKDIKRFENEGM
notes: KtrA, RCK domain protein of the B. subtilis KtrAB cation channel; tag-less; Tag-less, cloned in a modified pET-24d vector; eluted from ATP-agarose with ATP or ADP and kept with 1 mM nucleotide; also called KtrAWT; WT; source: E. coli BL21(DE3), purified (anion exchange, ATP-agarose, size exclusion)
B2: KtrA A80P mutant (natural protein, B. subtilis)
chain: B1 chain with A80P
notes: KtrA of B. subtilis with A80P; tag-less; source: E. coli BL21(DE3), purified (anion exchange, ATP-agarose, size exclusion)
B3: KtrA E125Q mutant (natural protein, B. subtilis)
chain: B1 chain with E125Q
notes: KtrA of B. subtilis with E125Q; tag-less; source: E. coli BL21(DE3), purified (anion exchange, ATP-agarose, size exclusion)
B4: KtrA R16A mutant (natural protein, B. subtilis)
chain: B1 chain with R16A
notes: KtrA of B. subtilis with R16A; tag-less; source: E. coli BL21(DE3), purified (anion exchange, ATP-agarose, size exclusion)
B5: KtrA R16K mutant (natural protein, B. subtilis)
chain: B1 chain with R16K
notes: KtrA of B. subtilis with R16K; tag-less; source: E. coli BL21(DE3), purified (anion exchange, ATP-agarose, size exclusion)

Substitutions are numbered along the chain they refer to. In names and notes the source's numbering stands.

The first data set deals with T1, KtrB. The data set is described as follows: SEC; purified KtrA-ATP (or ADP) added to Strep-KtrB on Strep-Tactin beads, 30 min 4°C, washed, eluted with desthiobiotin, tag cleaved by thrombin, then Superdex-S200 in Buffer F (10 mM HEPES, 7 mM NMG pH 8.0, 150 mM KCl, 0.5 mM DDM, 5 mM DTT, 0.2 mM EDTA). The settings on record: both partners purified.
As for B1, the binding result is given as “binds”.

Turning to B2, the binding result is on record as “binds”.

With B3, the binding result is on record as “binds”.

As for B4, the binding result is on record as “binds”.

The next data set concerns the molecule itself. The data set is described as follows: SEC; KtrA alone, bound to ATP or ADP; Superdex-S200, Buffer C (50 mM Tris-HCl pH 7.5, 150 mM KCl, 5 mM DTT, 0.2 mM EDTA).
Conditions: not given
(In general: SEC sorts molecules by how far they enter the pores of the column.)
For B2, the “stoichiometry N” value turned out to be 8.

The next data set deals with the molecule itself. The data set is described as follows: crystal structure; KtrA (WT and mutants) with 1 mM ATP or ADP, sitting-drop vapor diffusion at 20°C; WT-ATP with 5 mM CaCl2.
Conditions: not given
Regarding B1, the “stoichiometry N” value stood at 8.

Consider B5, for which the “stoichiometry N” value came to 8.

In the case of B3, the “stoichiometry N” value amounted to 8.

As to B4, the “stoichiometry N” value came to 8.
